Measured values reported in US12012446B2, “Epstein-Barr virus antibodies and uses thereof” (priority 2017, dated 2024).
Numbering of substitutions follows the chain as printed.

B1: HB2: murine anti-EBV gp350 mAb, IgG2a κ; SEQ ID NO: 104 / 105 (antibody, V domains shown)
VH: PELKKPGETVKISCKASGYTFTAYSMHWVKLTPGKGLKWMGWINTKTGEPTYADDFKGRFAFSLETSASTAYLQINNLKNEDTATYFCAPYGYALDYWGQGTSVTVSSAKTTPPSVYPLAPGSAAQTNSMVTLG
VL: AILSASPGEKVTMTCRATSSVNYMHWYQQKPGSSPKPWIYATSNLASGVPARFSGSGSGTSYSLTISRVEAEDAATYYCQQWSSNPPTFGAGTKLELKRADAAPTV
modifications: heavy chain mAb HB2; light chain mAb HB2
B2: HB17: murine anti-EBV gp350 mAb, IgG2b κ; SEQ ID NO: 126 / 127; non-nAb (antibody, V domains shown)
VH: AELVIPGASVKVSCKASGYTFTSYWIHWVKQWPGQGLEWIGEINPNNGHTNYNEKFKSKATLTVDKSSSTAYMQLSSLTSEDSAVYYCARNLFYYSRPDYWGQGTSVTVSSAKTTPPSVYPLAPGCGDTTGSSVTLG
VL: SSLSASLGDRVTISCRASQDIGNYLNWYQQKPDGTIKLLIYYTSRLHSGVPSRFSGSGSGTDYSLTISNLEEEDIATYFCQQGNTLPPTFGGGTKLEIKRADAAPTV
modifications: heavy chain mAb HB17; light chain mAb HB17
notes: murine anti-EBV gp350 mAb, IgG2b κ; non-nAb
B3: HB3: murine anti-EBV gp350 mAb, IgG2a κ; SEQ ID NO: 106 / 107 (antibody, V domains shown)
VH: AELVRPGASVKLSCKASGYTFASYWMQWVKQWPGQGLEWIGEINPNNGHTNYNERFKNKASLTVDKSSSTAYMQLSSLTSEDSAVYYCARNLYYYGRPDYWGQGTSVTVSSAKTTAPSVYPLAPVCGDTTGSSVTLG
VL: B2 VL
modifications: heavy chain mAb HB3; light chain mAb HB3
B4: HB9: murine anti-EBV gp350 mAb, IgG2a κ; SEQ ID NO: 116 / 117 (antibody, V domains shown)
VH: GGLVKPGGSLKLSCAASGFTFSSYTMSWVRQTPEKRLEWVATISSGGSYIYYPDSVKGRFTISRDNAKNTLYLQMSSLKSEDTAIYYCTREDFYYGSSYGFFDVWGAGTTVTVSSAKTTAPSVYPLAPVCGDTTGSSVTLG
VL: LSLPVSLGDQASISCRSSQSIVHSNGNTYLEWYLQKAGQSPKLLIYKVSNRFSGVPDRFGGSGSGTDFTLKISRVEAEDLGVYYCFQGSHVPYTFGGGTKLEIKRADAAPTV
modifications: heavy chain mAb HB9; light chain mAb HB9
B5: HB22: murine anti-EBV gp350 mAb, IgG1 κ; SEQ ID NO: 130 / 131; non-nAb (antibody, V domains shown)
VH: PGLVAPSQSLSITCTVSGFSLTNYGIHWVRQPPGKGLEWLVVIWSDGSTIYNSALKSRLSISKDNSKSQVFLKMNSLQTDDTAMYYCARNYYGNSYPAWFAYWGQGTLVTVSAAKTTPPSVYPLAPGSAAQTNSMVTLG
VL: B4 VL with A37P, G60S, K71R, Y93W
modifications: heavy chain mAb HB22; light chain mAb HB22
notes: murine anti-EBV gp350 mAb, IgG1 κ; non-nAb

Columns and labels:
[1] = molecular target: T1, gp350 protein on gp350 expressing CHO cells (Epstein-Barr virus, UniProt P03200); test: Flow cytometry of CHO cells stably expressing EBV gp350; format: binding; conditions: concluded from flow cytometry and immunoblot
T1 construct: stably co-transfected with full-length pCAGGS-gp350/220 and pCI-puro vector; expressed in transfected cells; host or cells: CHO cells
Protocol: To assess the ability of purified anti-gp350 mAb to detect surface expression of EBV gp350 protein by flow cytometry, CHO cells that stably express EBV gp350 were harvested and stained with purified anti-gp350 (10 μg/ml), followed by AF488 goat anti-mouse IgG secondary antibody. Flow cytometric analysis was performed on a C-6 FC (BD Biosciences) and data was analyzed using FlowJo Cytometry Analysis software (FlowJo, LLC) as described (47). All the experiments were independently repeated three times.
These novel antibodies were analyzed by flow cytometric analysis for surface expression of gp350 protein on 10^6 CHO cells transfected with 1 μg of pCAGGS-gp350. gp350 expressing cells were resuspended in PBS, stained with anti-gp350 mAb, which detects the gp350 ED, followed by secondary Ab goat anti-mouse conjugated to AF488. Additionally, western blot analysis was conducted on untransfected and pCAGGS-gp350 transfected CHO lysate. Anti-gp350 mAb 72A1 was used as a positive control (1:100) and anti-gp350 hybridoma clone supernatants were used at 1:50, and anti-mouse secondary antibody was used at 1:2000.
Flow cytometric analysis of gp350 and gH/gL specificity was performed. CHO wild type cells and gp350 or gH/gL-expressing CHO cells were stained with primary antibodies, followed by secondary goat anti-mouse or anti-human conjugated to AF488. Unstained cells and cells stained with secondary goat anti-mouse or anti-human conjugated to AF488 alone, were used as negative controls.

[2] = tested on: EBV-eGFP infection of Raji cells; test: EBV neutralization assay in Raji cells; format: cell-based, Epstein-Barr virus; conditions: for neutralization of EBV in Raji cells (in words): spin-column purified mAbs, 12.5, 25, 50 and 100 μg/ml; for blocking of EBV infection of Raji cells (in words): protein G and size-exclusion chromatography-purified mAbs, 12.5-100 μg/ml
Protocol: EBV neutralization assay was performed in Raji cells as previously described (47). Briefly, purified individual anti-gp350 mAbs were incubated with purified AGS-EBV-eGFP (titer calculated to infect at least 8% of HEK293 cells seeded in 100 μl of serum-free DMEM) for 2 hours at 37° C. To represent EBV infection of B cells, the pre-incubated anti-gp350 mAbs/AGS-EBV-eGFP were used to infect 5×10^5 Raji cells seeded in a 96-well plate for 2 hours at 37° C. Neutralizing 72A1 and non-neutralizing 2L10 anti-gp350 mAbs served as positive and negative controls, respectively. Infected cells were washed three times with PBS to remove any unbound viruses and antibodies. Washed, infected cells were incubated in 96-well plates at 37° C. for 48 hours post-infection and the number of eGFP+ (infected) cells was determined using flow cytometry. All dilutions were performed in quintuplicate and the assays were repeated three times. Antibody EBV neutralization activity was calculated as: % neutralization=(EBValone−EBVmAb)/(EBValone)×100.
However, this antibody was recently reported to be a mixture of both functional and non-functional antibodies (50). […] The percentage of eGFP+ cells (percent infection) was determined using flow cytometry as described (47). The nAbs 72A1 and E1D1 were used as positive controls, whereas the anti-gp350 non-neutralizing mAb 2L10 and KSHV gH/gL mAb 54A1 were used as negative controls. Because HB4, HB13, HB15, HB16, HB19, HB21, and HB23 were confirmed to be polyclonal based on isotyping and/or sequence data, they were eliminated from further consideration in the neutralization assay. HB18 was not used in neutralization experiments because it was identical to HB8.
The purified eGFP-tagged-EBV was titered in Raji cells to determine percent EBV infection using a range of volumes (50-250 μl) (FIG. 5A). Then initial neutralization of EBV was conducted in Raji cells using purified mAbs at various concentrations (12.5, 25, 50, and 100 μg/ml).
EBV-eGFP+ cells were enumerated using flow cytometry.

[3] = molecular target: T2, purified EBV gp350/220 (recombinant EBV gp350 ectodomain) (Epstein-Barr virus, UniProt P03200); test: Indirect ELISA on recombinant EBV gp350 ectodomain; format: binding; conditions: purified antibodies 10 μg/ml
T2 construct: purified EBV gp350 ectodomain protein (AA 4-863); purchased Immune Technology Corporation
Protocol: Briefly, immunoplates (Costar 3590; Corning Incorporated) were coated with 50 μl of 0.5 μg/ml recombinant EBV gp350 ectodomain (Immune Technology Corporation) diluted in 1× phosphate buffered saline (PBS, pH 7.4) and incubated overnight at 4° C. After washing three times with 1×PBS containing 0.05% (v/v) Tween 20 (washing buffer), plates were blocked with 100 μl washing buffer containing 2% (w/v) bovine serum albumin (BSA) (blocking buffer) then incubated for 1 h at room temperature and washed as above. 100 μl of hybridoma supernatant or 50 μl of 10 μg/ml purified mAbs was added to each well (in triplicate) and incubated for 2 h at room temperature. […] The plates were washed as described above, followed by incubation with 50 μl of goat anti-mouse IgG HRP-conjugated secondary antibody (1:2,000 diluted in 1×PBS) at room temperature for 1 h. The plates were washed again and 100 μl of chromogenic substrate 2,2′-azino-bis (3-ethylbenzothiazoline-6-sulphonic acid) (ABTS, Life Science Technologies) was added. The reaction was stopped using 100 μl of ABTS peroxidase stop solution containing 5% sodium dodecyl sulfate (SDS) in water. The absorbance was read at an optical density of 405 nm using an ELISA reader (Molecular Devices). All experiments were performed in triplicate and confirmed in three independent experiments.
ELISA binding of anti-gp350 and anti-gH/gL to soluble gp350 and gH/gL proteins was performed. Soluble EBV gp350 and gH/gL proteins were used as the target antigen at 0.5 μg/ml. 1× phosphate buffered saline (PBS) was used as negative (not shown) control. Bound antibodies were detected using HRP-conjugated anti-mouse or anti-human IgG (1:2,000).

[4] = molecular target: T3, EBV gp350 stably expressed on CHO cells (Epstein-Barr virus, UniProt P03200); test: Epitope mapping by competitive cell binding assay with biotinylated mAbs; conditions: for % inhibition of biotinylated nAbs (biotinylated m72A1): biotinylated m72A1 1 μg/ml
T3 construct: stably co-transfected with full-length pCAGGS-gp350/220 and pCI-puro vector; expressed in transfected cells; host or cells: CHO cells
Protocol: To evaluate conformation epitope mapping of the selected mAbs, competitive binding assays were conducted using biotinylated mAbs. A one-step antibody biotinylation kit (MACS Miltenyi Biotec) was used to biotinylate the mAbs. Approximately 1×10^5 CHO cells that stably expressed EBV gp350 were incubated for 2 hours with serially diluted ([…]) unlabeled competitor mAbs and non-specific anti-KSHV gH/gL 54A1 mAb. After being washed with PBS, the cells were incubated for 2 hours in the presence of 1 μg/ml biotinylated mAbs. To determine maximum binding, cells in which the biotinylated mAb was added in the absence of unlabeled mAbs were included in the assay. Cells were washed with PBS, followed by incubation for 1 hour with anti-biotin AF488 at a dilution of 1:500. After the final wash in PBS, cells were resuspended in 1% paraformaldehyde and analyzed by flow cytometry as described above. Percentage of inhibition was calculated as: 100−[(% fluorescent cells with competitor mAb/% fluorescent cells without competitor mAb)×100]. The complete prevention of binding of a biotinylated mAb by its unlabeled counterpart was used as a validation of the assay, as previously described (84).
At least seven unique CD21 binding epitopes on EBV gp350 have been predicted (Table 3).

T1 sequence (P03200 whole entry): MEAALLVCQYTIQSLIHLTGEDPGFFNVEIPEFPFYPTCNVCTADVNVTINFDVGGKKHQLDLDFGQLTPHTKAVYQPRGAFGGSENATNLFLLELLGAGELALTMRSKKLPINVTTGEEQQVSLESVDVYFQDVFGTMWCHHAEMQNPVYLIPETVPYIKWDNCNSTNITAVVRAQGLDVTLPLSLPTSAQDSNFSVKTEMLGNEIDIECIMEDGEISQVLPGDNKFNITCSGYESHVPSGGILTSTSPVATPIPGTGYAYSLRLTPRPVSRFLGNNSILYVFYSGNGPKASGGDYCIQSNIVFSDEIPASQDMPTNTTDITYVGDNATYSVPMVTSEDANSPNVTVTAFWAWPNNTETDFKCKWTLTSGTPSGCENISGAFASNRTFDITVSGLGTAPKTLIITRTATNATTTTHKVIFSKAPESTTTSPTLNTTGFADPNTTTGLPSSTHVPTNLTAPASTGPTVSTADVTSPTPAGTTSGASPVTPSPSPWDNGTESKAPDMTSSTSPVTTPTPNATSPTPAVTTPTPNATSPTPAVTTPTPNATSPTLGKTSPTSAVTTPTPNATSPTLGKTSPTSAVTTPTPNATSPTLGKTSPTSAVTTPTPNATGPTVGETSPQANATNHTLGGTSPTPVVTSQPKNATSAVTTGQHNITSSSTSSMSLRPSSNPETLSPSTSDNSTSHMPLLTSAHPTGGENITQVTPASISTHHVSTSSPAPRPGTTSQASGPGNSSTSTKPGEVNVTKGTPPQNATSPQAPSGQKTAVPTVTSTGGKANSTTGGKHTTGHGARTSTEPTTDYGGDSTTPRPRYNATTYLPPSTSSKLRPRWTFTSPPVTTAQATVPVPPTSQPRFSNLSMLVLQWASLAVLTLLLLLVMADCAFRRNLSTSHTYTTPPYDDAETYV
T3 sequence (P03200 whole entry): as above
T2 sequence (P03200 4-863): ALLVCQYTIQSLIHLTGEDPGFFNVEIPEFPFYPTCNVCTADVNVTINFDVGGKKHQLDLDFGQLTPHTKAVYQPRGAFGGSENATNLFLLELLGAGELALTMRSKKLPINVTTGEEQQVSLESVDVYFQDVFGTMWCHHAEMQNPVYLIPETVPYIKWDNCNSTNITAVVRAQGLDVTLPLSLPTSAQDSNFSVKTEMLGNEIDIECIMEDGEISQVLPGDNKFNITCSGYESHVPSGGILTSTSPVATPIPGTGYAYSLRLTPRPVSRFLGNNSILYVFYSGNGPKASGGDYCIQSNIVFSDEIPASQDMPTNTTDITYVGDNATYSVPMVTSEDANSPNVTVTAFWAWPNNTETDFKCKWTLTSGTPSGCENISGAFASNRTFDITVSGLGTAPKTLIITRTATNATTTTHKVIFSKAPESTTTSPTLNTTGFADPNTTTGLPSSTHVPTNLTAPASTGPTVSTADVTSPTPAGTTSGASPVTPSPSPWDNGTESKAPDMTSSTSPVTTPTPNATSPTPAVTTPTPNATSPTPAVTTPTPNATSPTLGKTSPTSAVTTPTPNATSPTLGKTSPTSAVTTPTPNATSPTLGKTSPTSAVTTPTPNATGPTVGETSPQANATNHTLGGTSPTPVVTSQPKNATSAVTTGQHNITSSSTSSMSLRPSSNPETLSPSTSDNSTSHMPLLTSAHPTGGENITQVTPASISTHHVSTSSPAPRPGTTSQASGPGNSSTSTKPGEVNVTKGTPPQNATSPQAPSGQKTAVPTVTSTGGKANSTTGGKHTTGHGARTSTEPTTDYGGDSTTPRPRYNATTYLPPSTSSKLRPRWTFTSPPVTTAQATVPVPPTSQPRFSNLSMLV

| Molecule | type of gp350 epitope recognized (linear / conformational) [1] | neutralization of EBV in Raji cells (in words) [2] | ELISA binding to purified EBV gp350/220 [3] | competitive binding versus m72A1 and h72A1 (in words) ([4]; biotinylated antibodies) | blocking of EBV infection of Raji cells (in words) [2] | % inhibition of biotinylated nAbs (biotinylated m72A1) ([4]; unlabeled mAb 67.5 μg/ml) [%] | % inhibition of biotinylated nAbs (biotinylated m72A1) ([4]; unlabeled mAb 125 μg/ml) [%] | % inhibition of biotinylated nAbs (biotinylated m72A1) ([4]; unlabeled mAb 250 μg/ml) [%] | % inhibition of biotinylated nAbs (biotinylated m72A1) ([4]; unlabeled mAb 500 μg/ml) [%] |
| --- | --- | --- | --- | --- | --- | --- | --- | --- | --- |
| B1 | only recognized conformational epitopes | failed to neutralize EBV infection | + | – | – | – | – | – | – |
| B2 | recognized both linear and conformational epitopes | failed to neutralize EBV infection | + | little to no competitive binding | Neither HB17, HB22, nor 54A1 blocked EBV infection | – | – | – | – |
| B3 | only recognized conformational epitopes | failed to neutralize EBV infection | + | – | – | – | – | – | – |
| B4 | recognized both linear and conformational epitopes | failed to neutralize EBV infection | + | – | – | – | – | – | – |
| B5 | – | dose-dependent neutralization | + | – | Neither HB17, HB22, nor 54A1 blocked EBV infection | 9 | 16 | 3 | 10 |
